Patent publication US10738094B2, “Peptides and combination of peptides for use in immunotherapy against ovarian cancer and other cancers” (immatics biotechnologies GmbH, priority 2015, dated 2020)

Molecular target: HLA-A*02:01 (Homo sapiens, UniProt P04439, D140Y/D185E/D98H/E176V/E277Q/G131W/G231S/I119V/I121R/I166T/I218V/L300P/L318F/N151K/N90K/P208A/P217A/Q86G/Q94H/R138H/R169H/T345S)
Assay: MHC binding assay (UV-ligand exchange, beta2m ELISA)
Details: binding to HLA-A*02:01 ranged by peptide exchange yield (UV-ligand exchange, β2m ELISA)
Text: Candidate peptides for T cell based therapies according to the present invention were further tested for their MHC binding capacity (affinity). The individual peptide-MHC complexes were produced by UV-ligand exchange, where a UV-sensitive peptide is cleaved upon UV-irradiation, and exchanged with the peptide of interest as analyzed. Only peptide candidates that can effectively bind and stabilize the peptide-receptive MHC molecules prevent dissociation of the MHC complexes. To determine the yield of the exchange reaction, an ELISA was performed based on the detection of the light chain (β2m) of stabilized MHC complexes. The assay was performed as generally described in Rodenko et al. (Rodenko et al., 2006).
96 well MAXISorp plates (NUNC) were coated over night with 2 ug/ml streptavidin in PBS at room temperature, washed 4× and blocked for 1 h at 37° C. in 2% BSA containing blocking buffer. […] Peptide-MHC monomers of the UV-exchange reaction were diluted 100 fold in blocking buffer. Samples were incubated for 1 h at 37° C., washed four times, incubated with 2 ug/ml HRP conjugated anti-β2m for 1 h at 37° C., washed again and detected with TMB solution that is stopped with […]. Absorption was measured at 450 nm. Candidate peptides that show a high exchange yield (preferably higher than 50%, most preferred higher than 75%) are generally preferred for a generation and production of antibodies or fragments thereof, and/or T cell receptors or fragments thereof, as they show sufficient avidity to the MHC molecules and prevent dissociation of the MHC complexes.

Peptide exchange | Substance
“+++” (≥50 = +++) | 45 (SLWQDIPDV; listed as Homo sapiens) [compound 45]
“+++” (≥50 = +++) | 46 (ILTEENIHL; listed as Homo sapiens) [compound 46]
“+++” (≥50 = +++) | 50 (SLSELEALM; listed as Homo sapiens) [compound 50]
“+++” (≥50 = +++) | 54 (SLLEQGKEPWMV; listed as Homo sapiens) [compound 54]
“+++” (≥50 = +++) | 57 (TLAELQPPVQL; listed as Homo sapiens) [compound 57]
“+++” (≥50 = +++) | 59 (IMEDIILTL; listed as Homo sapiens) [compound 59]
“++++” (≥75% = ++++) | 61 (FLQGYQLHL; listed as Homo sapiens) [compound 61]
“++” (≥20% = ++) | 64 (YAAPGGLIGV; listed as Homo sapiens) [compound 64]
“+++” (≥50 = +++) | 67 (TLLAEALVTV; listed as Homo sapiens) [compound 67]
“+++” (≥50 = +++) | 71 (GILARIASV; listed as Homo sapiens) [compound 71]
“+++” (≥50 = +++) | 75 (GLLEVMVNL; listed as Homo sapiens) [compound 75]
“++++” (≥75% = ++++) | 77 (ILVEADGAWVV; listed as Homo sapiens) [compound 77]

Continued, substance first:

Substance | Peptide exchange
41 (SLMPHIPGL; listed as Homo sapiens) [compound 41] | “+++” (≥50 = +++)
42 (VLLQKIVSA; listed as Homo sapiens) [compound 42] | “+++” (≥50 = +++)
43 (VLSSLEINI; listed as Homo sapiens) [compound 43] | “++” (≥20% = ++)
44 (ILDPISSGFLL; listed as Homo sapiens) [compound 44] | “++” (≥20% = ++)
47 (ILLSVPLLVV; listed as Homo sapiens) [compound 47] | “++” (≥20% = ++)
49 (YLPAVFEEV; listed as Homo sapiens) [compound 49] | “+++” (≥50 = +++)
51 (LLPDLEFYV; listed as Homo sapiens) [compound 51] | “++++” (≥75% = ++++)
52 (FLLAHGLGFLL; listed as Homo sapiens) [compound 52] | “++++” (≥75% = ++++)
53 (KMIETDILQKV; listed as Homo sapiens) [compound 53] | “++++” (≥75% = ++++)
55 (SLLDLETLSL; listed as Homo sapiens) [compound 55] | “++++” (≥75% = ++++)
62 (VLLDVSAGQLLM; listed as Homo sapiens) [compound 62] | “++++” (≥75% = ++++)
63 (YLLPSGGSVTL; listed as Homo sapiens) [compound 63] | “++” (≥20% = ++)
66 (FLDENIGGVAV; listed as Homo sapiens) [compound 66] | “+++” (≥50 = +++)
68 (SLMELPRGLFL; listed as Homo sapiens) [compound 68] | “++++” (≥75% = ++++)
69 (FQLDPSSGVLVTV; listed as Homo sapiens) [compound 69] | “+++” (≥50 = +++)
70 (GLLDYPVGV; listed as Homo sapiens) [compound 70] | “+++” (≥50 = +++)
72 (SLLELDGINL; listed as Homo sapiens) [compound 72] | “+++” (≥50 = +++)
73 (NIFDLQIYV; listed as Homo sapiens) [compound 73] | “+++” (≥50 = +++)
74 (ALLDPEVLSIFV; listed as Homo sapiens) [compound 74] | “+++” (≥50 = +++)
76 (ILIDSIYKV; listed as Homo sapiens) [compound 76] | “+++” (≥50 = +++)
78 (SLFSSLEPQIQPV; listed as Homo sapiens) [compound 78] | “+++” (≥50 = +++)
